# Like-named read-outs stand apart in the source and are kept apart here.
# Experiments:
# [1] = biological target: plasminogen (Homo sapiens) (UniProt P00747); settings: cited from earlier work
# [2] = biological target: Dom1-3His (extracytoplasmic domains 1-3 of the bovine CI-MPR, residues 1-432, C-terminal His6) (bovine) (UniProt P08169); assay: SPR
# [3] = biological target: Dom1-3His (extracytoplasmic domains 1-3 of the bovine CI-MPR, residues 1-432, C-terminal His6) (bovine) (UniProt P08169); assay: SPR; remark: listed apart in the source
# [4] = biological target: Dom1-2His (domains 1-2 of the bovine CI-MPR, residues 1-281, C-terminal His6) (bovine) (UniProt P08169); assay: SPR
# Dom1-2His (domains 1-2 of the bovine CI-MPR, residues 1-281, C-terminal His6) (bovine), sequence (P08169 45-325): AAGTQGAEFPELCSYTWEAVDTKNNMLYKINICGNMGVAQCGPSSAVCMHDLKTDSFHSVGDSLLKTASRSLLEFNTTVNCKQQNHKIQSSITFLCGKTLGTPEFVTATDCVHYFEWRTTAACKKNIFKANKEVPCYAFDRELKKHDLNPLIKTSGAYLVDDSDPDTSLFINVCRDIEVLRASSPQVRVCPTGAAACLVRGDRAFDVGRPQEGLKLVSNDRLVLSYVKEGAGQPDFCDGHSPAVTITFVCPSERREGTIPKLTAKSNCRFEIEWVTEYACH
# Dom1-3HisK125A (bovine) = Dom1-3HisK125A (bovine) (UniProt P08169); assay: SPR
# Dom1-3HisK125A (bovine), sequence (P08169 45-476 K169A): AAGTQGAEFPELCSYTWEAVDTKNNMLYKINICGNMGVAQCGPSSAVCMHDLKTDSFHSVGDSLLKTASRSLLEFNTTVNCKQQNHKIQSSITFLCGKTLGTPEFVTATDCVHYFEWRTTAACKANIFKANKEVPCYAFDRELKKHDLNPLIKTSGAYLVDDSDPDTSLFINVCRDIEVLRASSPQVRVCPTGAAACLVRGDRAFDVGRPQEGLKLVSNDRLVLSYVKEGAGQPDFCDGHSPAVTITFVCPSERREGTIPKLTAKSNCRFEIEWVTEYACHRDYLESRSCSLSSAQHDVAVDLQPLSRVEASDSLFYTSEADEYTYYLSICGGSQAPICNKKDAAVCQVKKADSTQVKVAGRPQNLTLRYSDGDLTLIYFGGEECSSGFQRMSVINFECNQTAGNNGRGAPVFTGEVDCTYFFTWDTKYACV
# Dom1-3HisK132A (bovine) = Dom1-3HisK132A (bovine) (UniProt P08169); assay: SPR
# Dom1-3HisK132A (bovine), sequence (P08169 45-476 K176A): as the sequence (P08169 45-476 K169A) above, with A125K, K132A counted along it
# Dom1-3HisK215A (bovine) = Dom1-3HisK215A (bovine) (UniProt P08169); assay: SPR
# Dom1-3HisK215A (bovine), sequence (P08169 45-476 K259A): as the sequence (P08169 45-476 K169A) above, with A125K, K215A counted along it
# Dom1-3HisK23A (bovine) = Dom1-3HisK23A (bovine) (UniProt P08169); assay: SPR
# Dom1-3HisK23A (bovine), sequence (P08169 45-476 K67A): as the sequence (P08169 45-476 K169A) above, with K23A, A125K counted along it
# Dom1-3HisK53A (bovine) = Dom1-3HisK53A (bovine) (UniProt P08169); assay: SPR
# Dom1-3HisK53A (bovine), sequence (P08169 45-476 K97A): as the sequence (P08169 45-476 K169A) above, with K53A, A125K counted along it
# Dom1-3HisK82A (bovine) = Dom1-3HisK82A (bovine) (UniProt P08169); assay: SPR
# Dom1-3HisK82A (bovine), sequence (P08169 45-476 K126A): as the sequence (P08169 45-476 K169A) above, with K82A, A125K counted along it
# Dom1-3HisK98A (bovine) = Dom1-3HisK98A (bovine) (UniProt P08169); assay: SPR
# Dom1-3HisK98A (bovine), sequence (P08169 45-476 K142A): as the sequence (P08169 45-476 K169A) above, with K98A, A125K counted along it
# Dom1-3HisR118A (bovine) = Dom1-3HisR118A (bovine) (UniProt P08169); assay: SPR
# Dom1-3HisR118A (bovine), sequence (P08169 45-476 R162A): as the sequence (P08169 45-476 K169A) above, with R118A, A125K counted along it
# [5] = biological target: Dom1His (domain 1 of the bovine CI-MPR, residues 1-123, C-terminal His6) (bovine) (UniProt P08169); assay: SPR
# Dom1His (domain 1 of the bovine CI-MPR, residues 1-123, C-terminal His6) (bovine), sequence (P08169 45-167): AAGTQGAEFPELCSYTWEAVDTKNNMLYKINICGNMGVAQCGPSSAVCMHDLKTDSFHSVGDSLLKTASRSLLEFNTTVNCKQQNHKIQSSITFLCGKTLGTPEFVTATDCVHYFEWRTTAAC
# [6] = biological target: soluble form of the cation-independent mannose 6-phosphate receptor isolated from fetal bovine serum (bovine) (UniProt P08169); assay: SPR
# soluble form of the cation-independent mannose 6-phosphate receptor isolated from fetal bovine serum (bovine), sequence (P08169 45-2313): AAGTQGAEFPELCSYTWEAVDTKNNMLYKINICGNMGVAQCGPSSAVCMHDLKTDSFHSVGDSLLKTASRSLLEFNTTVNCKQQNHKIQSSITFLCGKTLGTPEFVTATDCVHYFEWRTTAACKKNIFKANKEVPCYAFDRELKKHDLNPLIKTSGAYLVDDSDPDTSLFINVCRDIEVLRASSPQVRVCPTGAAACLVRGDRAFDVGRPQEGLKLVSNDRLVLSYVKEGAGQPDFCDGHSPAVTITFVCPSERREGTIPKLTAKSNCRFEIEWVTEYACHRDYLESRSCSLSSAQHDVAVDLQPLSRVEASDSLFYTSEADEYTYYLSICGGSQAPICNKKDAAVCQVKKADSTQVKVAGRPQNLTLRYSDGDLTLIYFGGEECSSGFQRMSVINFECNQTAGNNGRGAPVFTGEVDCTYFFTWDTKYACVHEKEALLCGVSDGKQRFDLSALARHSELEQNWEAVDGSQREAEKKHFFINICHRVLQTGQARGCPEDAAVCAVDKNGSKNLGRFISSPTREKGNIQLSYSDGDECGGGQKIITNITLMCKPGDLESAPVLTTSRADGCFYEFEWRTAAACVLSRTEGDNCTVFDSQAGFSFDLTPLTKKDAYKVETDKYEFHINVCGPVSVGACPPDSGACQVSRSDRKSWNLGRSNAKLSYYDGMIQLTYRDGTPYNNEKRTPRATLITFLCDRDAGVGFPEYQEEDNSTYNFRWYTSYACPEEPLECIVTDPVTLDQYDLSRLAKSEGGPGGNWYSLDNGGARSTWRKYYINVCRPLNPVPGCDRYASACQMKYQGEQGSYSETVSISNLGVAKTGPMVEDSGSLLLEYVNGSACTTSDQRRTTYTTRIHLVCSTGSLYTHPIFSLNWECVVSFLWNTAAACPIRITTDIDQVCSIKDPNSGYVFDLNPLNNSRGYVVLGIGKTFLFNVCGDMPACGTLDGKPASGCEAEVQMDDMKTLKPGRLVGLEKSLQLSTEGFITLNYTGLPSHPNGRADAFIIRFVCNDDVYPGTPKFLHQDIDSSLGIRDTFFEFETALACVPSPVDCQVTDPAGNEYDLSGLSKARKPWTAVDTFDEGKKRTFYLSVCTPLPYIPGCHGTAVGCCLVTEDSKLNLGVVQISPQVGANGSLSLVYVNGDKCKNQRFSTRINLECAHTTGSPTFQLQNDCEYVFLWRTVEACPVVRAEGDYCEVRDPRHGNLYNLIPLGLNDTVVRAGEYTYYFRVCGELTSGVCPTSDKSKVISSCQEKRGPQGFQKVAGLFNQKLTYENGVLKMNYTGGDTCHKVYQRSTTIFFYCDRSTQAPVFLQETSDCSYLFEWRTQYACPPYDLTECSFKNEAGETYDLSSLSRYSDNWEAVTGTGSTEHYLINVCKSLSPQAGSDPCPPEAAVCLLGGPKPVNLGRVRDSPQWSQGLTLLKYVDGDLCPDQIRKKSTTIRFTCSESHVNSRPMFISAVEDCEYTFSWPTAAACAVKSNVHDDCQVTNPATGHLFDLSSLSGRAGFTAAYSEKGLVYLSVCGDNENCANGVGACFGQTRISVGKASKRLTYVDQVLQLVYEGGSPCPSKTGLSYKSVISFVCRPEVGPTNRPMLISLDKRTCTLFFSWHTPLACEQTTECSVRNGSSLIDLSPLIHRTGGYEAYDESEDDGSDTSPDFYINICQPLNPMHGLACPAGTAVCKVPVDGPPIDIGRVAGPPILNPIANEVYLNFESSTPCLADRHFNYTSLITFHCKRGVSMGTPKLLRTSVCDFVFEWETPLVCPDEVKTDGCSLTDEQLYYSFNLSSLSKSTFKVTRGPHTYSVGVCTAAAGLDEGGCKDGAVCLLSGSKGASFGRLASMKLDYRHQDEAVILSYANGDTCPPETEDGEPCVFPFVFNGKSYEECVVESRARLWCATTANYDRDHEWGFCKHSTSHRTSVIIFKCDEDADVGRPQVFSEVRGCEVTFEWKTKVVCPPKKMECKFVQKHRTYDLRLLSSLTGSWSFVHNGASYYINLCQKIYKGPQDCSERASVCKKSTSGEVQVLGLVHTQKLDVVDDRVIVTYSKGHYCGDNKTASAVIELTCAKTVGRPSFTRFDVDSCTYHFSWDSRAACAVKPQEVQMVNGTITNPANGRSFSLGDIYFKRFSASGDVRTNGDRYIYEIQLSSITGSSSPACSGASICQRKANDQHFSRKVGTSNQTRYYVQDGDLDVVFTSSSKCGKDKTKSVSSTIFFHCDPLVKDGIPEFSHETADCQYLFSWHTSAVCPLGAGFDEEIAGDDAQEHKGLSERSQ
# Dom1-3His (extracytoplasmic domains 1-3 of the bovine CI-MPR, residues 1-432, C-terminal His6) (bovine), sequence (P08169 45-476): as the sequence (P08169 45-476 K169A) above, with A125K counted along it
# plasminogen (Homo sapiens), sequence (P00747 20-810): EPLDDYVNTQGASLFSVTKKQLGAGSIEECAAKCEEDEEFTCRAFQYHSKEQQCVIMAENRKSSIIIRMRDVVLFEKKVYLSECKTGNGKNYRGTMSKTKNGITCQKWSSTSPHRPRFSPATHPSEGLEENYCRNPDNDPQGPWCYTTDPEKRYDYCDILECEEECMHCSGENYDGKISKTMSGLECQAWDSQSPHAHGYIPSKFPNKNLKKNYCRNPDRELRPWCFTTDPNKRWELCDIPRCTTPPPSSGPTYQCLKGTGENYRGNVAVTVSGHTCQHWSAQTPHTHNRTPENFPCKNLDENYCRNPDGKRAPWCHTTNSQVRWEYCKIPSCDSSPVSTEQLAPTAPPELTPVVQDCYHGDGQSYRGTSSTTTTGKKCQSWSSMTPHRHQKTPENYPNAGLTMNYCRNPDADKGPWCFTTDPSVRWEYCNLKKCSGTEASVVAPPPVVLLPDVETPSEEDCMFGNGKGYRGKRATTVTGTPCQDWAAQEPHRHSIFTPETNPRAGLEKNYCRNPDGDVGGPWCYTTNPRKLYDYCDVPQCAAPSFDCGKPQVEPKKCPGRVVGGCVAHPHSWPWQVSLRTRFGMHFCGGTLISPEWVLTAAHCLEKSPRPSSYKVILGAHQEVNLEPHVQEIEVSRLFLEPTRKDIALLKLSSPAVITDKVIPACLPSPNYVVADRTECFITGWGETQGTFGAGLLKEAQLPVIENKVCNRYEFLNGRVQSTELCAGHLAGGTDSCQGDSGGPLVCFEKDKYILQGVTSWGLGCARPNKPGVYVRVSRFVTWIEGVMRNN
Kd [2],Kd [3],Kd2 (two-site model) [4],Kd (Dom1-3HisK125A (bovine)),Kd (Dom1-3HisK132A (bovine)),Kd (Dom1-3HisK215A (bovine)),Kd (Dom1-3HisK23A (bovine)),Kd (Dom1-3HisK53A (bovine)),Kd (Dom1-3HisK82A (bovine)),Kd (Dom1-3HisK98A (bovine)),Kd (Dom1-3HisR118A (bovine)),Kd1 (two-site model) [5],Kd2 (two-site model) [5],Kd2 (two-site model) [6],Substance,Kd [1]
–,–,–,–,–,–,–,–,–,–,–,–,–,–,CI-MPR (from UniProt P11717),270 nM
170 nM,–,–,–,–,–,–,–,–,–,–,–,–,–,human angiostatin K1-4 (domain or fragment),–
271 nM,131 nM,170 nM,> 2000 nM,64 nM,10 nM,33 nM,> 2000 nM,69 nM,24 nM,21 nM,> 2 µM,> 2 µM,290 nM,bovine Glu-plasminogen (natural protein),–
